Reference: US20080008712

How the values were obtained:
CDC25B1 = target: T1, CDC25B1
T1 chain: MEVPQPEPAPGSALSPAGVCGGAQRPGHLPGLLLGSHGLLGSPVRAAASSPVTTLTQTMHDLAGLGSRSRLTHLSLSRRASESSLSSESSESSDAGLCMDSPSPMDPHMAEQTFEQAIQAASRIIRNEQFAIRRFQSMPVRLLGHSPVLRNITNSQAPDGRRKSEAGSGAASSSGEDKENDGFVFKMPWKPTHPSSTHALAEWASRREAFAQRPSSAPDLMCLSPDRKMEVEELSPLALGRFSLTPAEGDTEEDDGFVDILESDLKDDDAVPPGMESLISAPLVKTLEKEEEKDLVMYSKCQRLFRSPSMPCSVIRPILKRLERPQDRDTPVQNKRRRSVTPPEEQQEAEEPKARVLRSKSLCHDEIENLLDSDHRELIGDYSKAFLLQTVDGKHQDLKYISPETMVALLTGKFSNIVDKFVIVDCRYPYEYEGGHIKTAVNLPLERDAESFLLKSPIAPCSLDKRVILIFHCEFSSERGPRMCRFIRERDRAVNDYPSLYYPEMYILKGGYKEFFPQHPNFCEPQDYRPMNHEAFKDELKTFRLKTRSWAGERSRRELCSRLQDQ

CDC25B2 = target: T2, CDC25B2
T2 chain: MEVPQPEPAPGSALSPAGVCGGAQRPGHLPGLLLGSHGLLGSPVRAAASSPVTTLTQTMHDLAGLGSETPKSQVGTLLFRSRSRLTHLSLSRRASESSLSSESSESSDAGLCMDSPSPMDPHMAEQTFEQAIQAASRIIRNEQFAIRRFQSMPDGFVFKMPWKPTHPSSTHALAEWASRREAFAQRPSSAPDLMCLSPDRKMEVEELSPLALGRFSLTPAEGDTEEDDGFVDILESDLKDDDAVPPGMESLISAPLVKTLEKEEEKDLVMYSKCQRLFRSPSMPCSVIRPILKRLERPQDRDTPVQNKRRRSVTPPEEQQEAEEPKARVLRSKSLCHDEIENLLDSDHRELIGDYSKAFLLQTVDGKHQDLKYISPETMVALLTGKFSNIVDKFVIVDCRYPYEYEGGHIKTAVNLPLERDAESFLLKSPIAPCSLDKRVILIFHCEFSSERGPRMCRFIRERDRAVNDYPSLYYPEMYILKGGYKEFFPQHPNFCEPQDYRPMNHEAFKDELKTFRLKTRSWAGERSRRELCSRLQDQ

[1] = target: T3, CDC25B3 recombinant protein
T3 chain: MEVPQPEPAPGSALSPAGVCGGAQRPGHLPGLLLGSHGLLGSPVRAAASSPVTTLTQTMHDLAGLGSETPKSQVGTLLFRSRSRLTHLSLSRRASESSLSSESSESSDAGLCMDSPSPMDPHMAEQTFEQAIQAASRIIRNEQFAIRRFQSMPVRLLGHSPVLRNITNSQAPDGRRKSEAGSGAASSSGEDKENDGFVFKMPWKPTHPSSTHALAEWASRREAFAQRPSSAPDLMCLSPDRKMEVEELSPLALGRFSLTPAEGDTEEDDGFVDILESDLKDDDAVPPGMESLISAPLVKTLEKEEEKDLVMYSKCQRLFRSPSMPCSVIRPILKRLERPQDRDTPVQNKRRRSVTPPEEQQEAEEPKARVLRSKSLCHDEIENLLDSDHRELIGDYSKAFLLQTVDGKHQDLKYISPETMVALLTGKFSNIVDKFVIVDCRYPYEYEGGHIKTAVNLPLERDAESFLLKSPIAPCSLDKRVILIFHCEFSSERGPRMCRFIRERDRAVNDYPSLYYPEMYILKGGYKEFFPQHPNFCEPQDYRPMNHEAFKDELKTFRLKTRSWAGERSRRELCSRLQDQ

CDC25B4 = target: T4, CDC25B4
T4 chain: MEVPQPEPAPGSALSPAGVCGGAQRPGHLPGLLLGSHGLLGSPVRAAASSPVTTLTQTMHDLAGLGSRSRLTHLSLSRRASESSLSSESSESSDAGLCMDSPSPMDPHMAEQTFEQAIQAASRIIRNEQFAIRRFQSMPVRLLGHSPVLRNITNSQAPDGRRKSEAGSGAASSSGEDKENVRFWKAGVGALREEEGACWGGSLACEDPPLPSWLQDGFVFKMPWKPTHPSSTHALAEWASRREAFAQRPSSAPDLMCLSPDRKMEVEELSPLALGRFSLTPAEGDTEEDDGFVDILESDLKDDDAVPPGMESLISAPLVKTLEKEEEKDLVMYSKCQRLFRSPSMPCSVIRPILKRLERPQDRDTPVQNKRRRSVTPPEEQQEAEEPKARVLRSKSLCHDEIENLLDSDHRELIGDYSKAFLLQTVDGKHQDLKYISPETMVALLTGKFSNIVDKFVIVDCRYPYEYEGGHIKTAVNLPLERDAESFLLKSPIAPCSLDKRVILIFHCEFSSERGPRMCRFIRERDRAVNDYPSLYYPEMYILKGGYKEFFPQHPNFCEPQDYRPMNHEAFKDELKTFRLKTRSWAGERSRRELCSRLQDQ

CDC25B5 = target: T5, CDC25B5
T5 chain: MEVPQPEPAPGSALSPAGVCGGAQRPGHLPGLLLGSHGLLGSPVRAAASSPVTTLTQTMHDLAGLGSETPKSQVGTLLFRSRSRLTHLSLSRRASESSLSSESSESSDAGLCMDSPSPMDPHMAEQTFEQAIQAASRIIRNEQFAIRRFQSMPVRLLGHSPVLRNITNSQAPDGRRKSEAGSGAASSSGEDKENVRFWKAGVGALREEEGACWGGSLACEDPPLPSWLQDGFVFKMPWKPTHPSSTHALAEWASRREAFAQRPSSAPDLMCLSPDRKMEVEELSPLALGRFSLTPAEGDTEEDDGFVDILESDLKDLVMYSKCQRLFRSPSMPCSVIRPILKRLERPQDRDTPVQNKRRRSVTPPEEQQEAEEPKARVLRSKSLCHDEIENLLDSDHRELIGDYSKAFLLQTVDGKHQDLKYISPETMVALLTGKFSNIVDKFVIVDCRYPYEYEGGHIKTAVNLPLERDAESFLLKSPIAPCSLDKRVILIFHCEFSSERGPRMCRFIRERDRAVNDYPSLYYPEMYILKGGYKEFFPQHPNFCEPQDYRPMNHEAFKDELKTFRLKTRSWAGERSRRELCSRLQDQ

B1: recombinant Aurora A kinase (protein)
chain: MDRSKENCISGPVKATAPVGGPKRVLVTQQFPCQNPLPVNSGQAQRVLCPSNSSQRIPLQAQKLVSSHKPVQNQKQKQLQATSVPHPVSRPLNNTQKSKQPLPSAPENNPEEELASKQKNEESKKRQWALEDFEIGRPLGKGKFGNVYLAREKQSKFILALKVLFKAQLEKAGVEHQLRREVEIQSHLRHPNILRLYGYFHDATRVYLILEYAPLGTVYRELQKLSKFDEQRTATYITELANALSYCHSKRVIHRDIKPENLLLGSAGELKIADFGWSVHAPSSRRTTLCGTLDYLPPEMIEGRMHDEKVDLWSLGVLCYEFLVGKPPFEANTYQETYKRISRVEFTFPDFVTEGARDLISRLLKHNPSQRPMLREVLEHPWITANSSKPSNCQNKESASKQS
in vitro phosphorylation (CDC25B1): the recombinant Aurora A kinase phosphorylates CDC25B1 on the serine 339
in vitro phosphorylation (CDC25B2): CDC25B2 on the serine 312
in vitro phosphorylation, MS/MS of the tryptic peptide 353-SVTPPEEQQEAEEPK-367 [1]: it is the serine 353 which is phosphorylated by the kinase
in vitro phosphorylation (CDC25B4): CDC25B4 on the serine 374
in vitro phosphorylation (CDC25B5): CDC25B5 on the serine 361
